Experimental data from US20230236179A1.

Assays:
[1] = target: human interleukin-1 beta (IL-1β) protein standard (R&D Systems 201-LB-005) (human) (UniProt P01584); assay: conventional Simoa sandwich (capture beads + detector m2), 300 pM SβG/15 min; IL-1B at 25 fM
[2] = target: human interleukin-1 beta (IL-1β) protein standard (R&D Systems 201-LB-005) (human) (UniProt P01584); assay: dSimoa sandwich (capture beads + detector m2), 300 pM streptavidin-DNA/15 min; IL-1B at 0.5 fM
[3] = target: human interleukin-1 beta (IL-1β) protein standard (R&D Systems 201-LB-005) (human) (UniProt P01584); assay: conventional Simoa sandwich (capture beads + detector m2), 150 pM SβG/5 min; IL-1B at 0.098 fM
[4] = target: human interleukin-1 beta (IL-1β) protein standard (R&D Systems 201-LB-005) (human) (UniProt P01584); assay: conventional Simoa sandwich (capture beads + detector m2), 150 pM SβG/5 min; IL-1B at 100 fM
[5] = target: human interleukin-1 beta (IL-1β) protein standard (R&D Systems 201-LB-005) (human) (UniProt P01584); assay: conventional Simoa sandwich (capture beads + detector m2), 300 pM SβG/15 min; IL-1B at 0.024 fM
[6] = target: human interleukin-1 beta (IL-1β) protein standard (R&D Systems 201-LB-005) (human) (UniProt P01584); assay: dSimoa sandwich (capture beads + detector m2), 300 pM streptavidin-DNA/15 min; IL-1B at 0.01 fM
[7] = target: human interleukin-1 beta (IL-1β) protein standard (R&D Systems 201-LB-005) (human) (UniProt P01584); assay: conventional Simoa sandwich (capture beads + detector m2), 300 pM SβG/15 min; IL-1B at 0.098 fM
[8] = target: human interleukin-1 beta (IL-1β) protein standard (R&D Systems 201-LB-005) (human) (UniProt P01584); assay: dSimoa sandwich (capture beads + detector m2), 300 pM streptavidin-DNA/15 min; IL-1B at 1 fM
[9] = target: human interleukin-1 beta (IL-1β) protein standard (R&D Systems 201-LB-005) (human) (UniProt P01584); assay: conventional Simoa sandwich (capture beads + detector m2), 300 pM SβG/15 min; IL-1B at 6.25 fM
[10] = target: human interleukin-1 beta (IL-1β) protein standard (R&D Systems 201-LB-005) (human) (UniProt P01584); assay: dSimoa sandwich (capture beads + detector m2), 300 pM streptavidin-DNA/15 min; IL-1B at 10 fM
[11] = target: human interleukin-1 beta (IL-1β) protein standard (R&D Systems 201-LB-005) (human) (UniProt P01584); assay: conventional Simoa sandwich (capture beads + detector m2), 150 pM SβG/5 min; IL-1B at 25 fM
[12] = target: human interleukin-1 beta (IL-1β) protein standard (R&D Systems 201-LB-005) (human) (UniProt P01584); assay: conventional Simoa sandwich (capture beads + detector m2), 300 pM SβG/15 min; IL-1B at 0.391 fM
[13] = target: human interleukin-1 beta (IL-1β) protein standard (R&D Systems 201-LB-005) (human) (UniProt P01584); assay: conventional Simoa sandwich (capture beads + detector m2), 150 pM SβG/5 min; IL-1B at 0.391 fM
[14] = target: human interleukin-1 beta (IL-1β) protein standard (R&D Systems 201-LB-005) (human) (UniProt P01584); assay: conventional Simoa sandwich (capture beads + detector m2), 300 pM SβG/15 min; IL-1B at 1.563 fM
[15] = target: human interleukin-1 beta (IL-1β) protein standard (R&D Systems 201-LB-005) (human) (UniProt P01584); assay: conventional Simoa sandwich (capture beads + detector m2), 150 pM SβG/5 min; IL-1B at 1.563 fM
[16] = target: human interleukin-1 beta (IL-1β) protein standard (R&D Systems 201-LB-005) (human) (UniProt P01584); assay: dSimoa sandwich (capture beads + detector m2), 300 pM streptavidin-DNA/15 min; IL-1B at 0.1 fM
[17] = target: human interleukin-1 beta (IL-1β) protein standard (R&D Systems 201-LB-005) (human) (UniProt P01584); assay: dSimoa sandwich (capture beads + detector m2), 300 pM streptavidin-DNA/15 min; IL-1B at 100 fM
[18] = target: human interleukin-1 beta (IL-1β) protein standard (R&D Systems 201-LB-005) (human) (UniProt P01584); assay: conventional Simoa sandwich (capture beads + detector m2), 300 pM SβG/15 min; IL-1B at 100 fM
[19] = target: human interleukin-1 beta (IL-1β) protein standard (R&D Systems 201-LB-005) (human) (UniProt P01584); assay: dSimoa sandwich (capture beads + detector m2), 300 pM streptavidin-DNA/15 min; IL-1B at 0.05 fM

Chain of UniProt P01584 (P01584 117-269 limits assumed): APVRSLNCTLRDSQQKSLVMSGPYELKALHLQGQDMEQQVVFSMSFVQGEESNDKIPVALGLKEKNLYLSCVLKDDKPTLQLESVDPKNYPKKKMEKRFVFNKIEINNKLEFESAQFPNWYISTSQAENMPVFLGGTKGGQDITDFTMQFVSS

average AEB [1]: 0.221 AEB
average AMB [2]: 0.0114 AMB
average AEB [3]: 0.0108 AEB
average AEB [4]: 0.721 AEB
average AEB [5]: 0.0428 AEB
average AMB [6]: 0.0044 AMB
average AEB [7]: 0.0271 AEB
average AMB [8]: 0.0133 AMB
average AEB [9]: 0.0714 AEB
average AMB [10]: 0.0898 AMB
average AEB [11]: 0.199 AEB
average AEB [12]: 0.029 AEB
average AEB [13]: 0.0135 AEB
average AEB [14]: 0.0379 AEB
average AEB [15]: 0.0222 AEB
average AMB [16]: 0.0051 AMB
average AMB [17]: 0.822 AMB
average AEB [18]: 0.767 AEB
average AMB [19]: 0.0054 AMB
Substance: IL-1β capture antibody (Biolegend 508202)
